# Reference: PMC12412652 (2025)
# Changes are numbered by the printed parent chain.
# T1: BCL-B (Homo sapiens)
# T1 chain: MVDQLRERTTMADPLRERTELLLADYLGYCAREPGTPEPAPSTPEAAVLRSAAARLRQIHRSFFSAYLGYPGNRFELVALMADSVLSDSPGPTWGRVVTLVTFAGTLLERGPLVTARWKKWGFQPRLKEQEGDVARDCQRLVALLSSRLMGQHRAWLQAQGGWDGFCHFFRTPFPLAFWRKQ
# T2: MCL-1 (Homo sapiens)
# T2 chain: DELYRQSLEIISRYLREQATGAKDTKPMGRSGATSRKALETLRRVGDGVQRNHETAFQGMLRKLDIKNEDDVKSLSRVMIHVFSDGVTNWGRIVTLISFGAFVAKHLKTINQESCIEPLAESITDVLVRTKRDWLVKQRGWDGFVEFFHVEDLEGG
# T3: BCL-W (Homo sapiens)
# T3 chain: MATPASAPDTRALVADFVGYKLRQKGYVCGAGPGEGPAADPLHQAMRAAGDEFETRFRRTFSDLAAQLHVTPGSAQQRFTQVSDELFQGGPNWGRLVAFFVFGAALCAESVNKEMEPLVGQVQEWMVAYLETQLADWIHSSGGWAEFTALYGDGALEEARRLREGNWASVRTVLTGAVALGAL
# T4: BFL-1 (UniProt Q16548 1-175, biotin)
# T4 chain: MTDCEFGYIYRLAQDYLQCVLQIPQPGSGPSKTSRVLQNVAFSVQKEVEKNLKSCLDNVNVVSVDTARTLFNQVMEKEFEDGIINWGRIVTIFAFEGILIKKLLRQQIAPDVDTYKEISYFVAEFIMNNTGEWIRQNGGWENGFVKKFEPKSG
# T5: MBP-BAK 16-186, biotinylated (Avi tag, 6-histidine tag) (human, UniProt Q16611 16-186, biotin on the Avi tag (enzymatic, BirA))
# T5 chain: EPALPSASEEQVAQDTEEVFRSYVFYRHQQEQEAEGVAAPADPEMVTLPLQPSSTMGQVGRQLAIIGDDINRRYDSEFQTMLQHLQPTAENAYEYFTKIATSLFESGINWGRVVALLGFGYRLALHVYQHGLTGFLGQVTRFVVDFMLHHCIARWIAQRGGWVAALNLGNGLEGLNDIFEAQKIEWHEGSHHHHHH
# B1: αBAK2 (designed binder)
# chain: GADPKKVLDKADDQMENVVVTLKQELEELAKERRKLDLTQSEKIELKLRYIVAHLAAIGDIEEAIREAKEEADKLKKAGLVNSQQFAEFKRRLEELHKEADRKRRDYAEEFRNKLEYG
# modifications: biotinylated for BLI (Avi tag). Limits not given; the soluble form lacking the transmembrane segment (183-200) is taken by convention
# B2: αBAK1 (designed binder)
# chain: B1 chain with D12K, V20R, T21K, E25I, R33A, S41D, K47I, F86L, A87D
# modifications: biotinylated for BLI (Avi tag). Limits not given; the conventional BCL-2-fold core 172-327 is taken
# B3: αBAK2 (designed binder)
# chain: B1 chain
# modifications: biotinylated for BLI (Avi tag). Limits not given; the conventional BCL-2-fold core 172-327 is taken
# B4: αBAK2 (designed binder)
# chain: B1 chain
# modifications: biotinylated for BLI (Avi tag). Limits not given; the soluble form lacking the transmembrane segment (210-226) is taken by convention. Any loop deletion is not stated
# B5: αBAK1 (designed binder)
# chain: B1 chain with D12K, V20R, T21K, E25I, R33A, S41D, K47I, F86L, A87D
# modifications: biotinylated for BLI (Avi tag). Limits not given; the soluble form lacking the transmembrane segment (210-226) is taken by convention. Any loop deletion is not stated
# B6: αBAK2 (designed binder)
# chain: B1 chain
# modifications: biotinylated for BLI (Avi tag). Limits not printed in the text (constructs as in cited earlier work); the soluble form lacking the C-terminal tail is taken by convention. Any solubility mutations are not stated
# B7: αBAK1 (designed binder)
# chain: B1 chain with D12K, V20R, T21K, E25I, R33A, S41D, K47I, F86L, A87D
# B8: αBAK2 (designed binder)
# chain: B1 chain
# B9: αBAK1 (designed binder)
# chain: B1 chain with D12K, V20R, T21K, E25I, R33A, S41D, K47I, F86L, A87D
# modifications: biotinylated for BLI (Avi tag). Limits not given; the soluble form lacking the transmembrane segment (183-200) is taken by convention
# B10: αBAK1 (designed binder)
# chain: B1 chain with D12K, V20R, T21K, E25I, R33A, S41D, K47I, F86L, A87D
# modifications: biotinylated for BLI (Avi tag). Limits not printed in the text (constructs as in cited earlier work); the soluble form lacking the C-terminal tail is taken by convention. Any solubility mutations are not stated
# B11: BAX-CDP01 (BAX-targeting computationally designed protein 01) (designed binder)
# chain: GADPKKVLDKARDQAENRVRELAQKLEELYKEARKLDLTQEERRKLEKRYKAAMEEAIKDIREAIRQAKQEADKLKKAGLVNSQQLKELKQRLNELAIAAALRAIGDAIEFRRKLQYG
# modifications: biotinylated for BLI (Avi tag). Limits not given; the soluble form lacking the transmembrane segment (210-226) is taken by convention. Any loop deletion is not stated
# B12: BAX-CDP01 (BAX-targeting computationally designed protein 01) (designed binder)
# chain: B11 chain
# modifications: biotinylated for BLI (Avi tag). Limits not printed in the text (constructs as in cited earlier work); the soluble form lacking the C-terminal tail is taken by convention. Any solubility mutations are not stated
# B13: BAX-CDP01 (BAX-targeting computationally designed protein 01) (designed binder)
# chain: B11 chain
# B14: BAX-CDP01 (BAX-targeting computationally designed protein 01) (designed binder)
# chain: B11 chain
# modifications: biotinylated for BLI (Avi tag). Limits not given; the soluble form lacking the transmembrane segment (183-200) is taken by convention
# B15: BAX-CDP01 (BAX-targeting computationally designed protein 01) (designed binder)
# chain: B11 chain
# modifications: biotinylated for BLI (Avi tag). Limits not given; the conventional BCL-2-fold core 172-327 is taken
# B16: αBAX2 (designed binder)
# chain: GADPKKVLDKARDQAENRVRELRQKLTELYKEARKLDLTQEERRKLIKRYKAAMNEAIKDIHEAIEQAKEEADKLKDAGLVNEQQLKELKQRLNEKALAAAFRASGDTWHARRKLQYG
# B17: αBAX1 (designed binder)
# chain: B11 chain with R62H, R66E, Q70E, K77D, S83E, L102F, I105S, A108T
# B18: αBAX1 (designed binder)
# chain: B11 chain with R62H, R66E, Q70E, K77D, S83E, L102F, I105S, A108T
# modifications: biotinylated for BLI (Avi tag). Limits not given; the soluble form lacking the transmembrane segment (210-226) is taken by convention. Any loop deletion is not stated
# B19: αBAX2 (designed binder)
# chain: B16 chain
# modifications: biotinylated for BLI (Avi tag). Limits not given; the soluble form lacking the transmembrane segment (210-226) is taken by convention. Any loop deletion is not stated
# B20: αBAX2 (designed binder)
# chain: B16 chain
# modifications: biotinylated for BLI (Avi tag). Limits not printed in the text (constructs as in cited earlier work); the soluble form lacking the C-terminal tail is taken by convention. Any solubility mutations are not stated
# B21: αBAX2 (designed binder)
# chain: B16 chain
# modifications: biotinylated for BLI (Avi tag). Limits not given; the conventional BCL-2-fold core 172-327 is taken
# B22: αBAX1 (designed binder)
# chain: B11 chain with R62H, R66E, Q70E, K77D, S83E, L102F, I105S, A108T
# modifications: biotinylated for BLI (Avi tag). Limits not given; the conventional BCL-2-fold core 172-327 is taken
# B23: αBAX1 (designed binder)
# chain: B11 chain with R62H, R66E, Q70E, K77D, S83E, L102F, I105S, A108T
# modifications: biotinylated for BLI (Avi tag). Limits not given; the soluble form lacking the transmembrane segment (183-200) is taken by convention
# B24: αBAX2 (designed binder)
# chain: B16 chain
# modifications: biotinylated for BLI (Avi tag). Limits not given; the soluble form lacking the transmembrane segment (183-200) is taken by convention
# B25: αBAX1 (designed binder)
# chain: B11 chain with R62H, R66E, Q70E, K77D, S83E, L102F, I105S, A108T
# modifications: biotinylated for BLI (Avi tag). Limits not printed in the text (constructs as in cited earlier work); the soluble form lacking the C-terminal tail is taken by convention. Any solubility mutations are not stated
# B26: BAK-CDP02 (BAK-targeting computationally designed protein 02 of 11) (designed binder)
# chain: GADPKKVLDKAKDQAENVVRKLKQILEELYKEARKLDLTQDEKIELILRYIAAMLAAIGDILEAIRQAKEEADKLKKAGLVNSQQLDELKRRLEELRKEAARKARDYAEEFRNKLEYG
# B27: BAK-CDP02 (BAK-targeting computationally designed protein 02 of 11) (designed binder)
# chain: B26 chain
# modifications: biotinylated for BLI (Avi tag). Limits not printed in the text (constructs as in cited earlier work); the soluble form lacking the C-terminal tail is taken by convention. Any solubility mutations are not stated
# B28: BAK-CDP02 (BAK-targeting computationally designed protein 02 of 11) (designed binder)
# chain: B26 chain
# modifications: biotinylated for BLI (Avi tag). Limits not given; the conventional BCL-2-fold core 172-327 is taken
# B29: BAK-CDP02 (BAK-targeting computationally designed protein 02 of 11) (designed binder)
# chain: B26 chain
# modifications: biotinylated for BLI (Avi tag). Limits not given; the soluble form lacking the transmembrane segment (183-200) is taken by convention
# B30: BAK-CDP02 (BAK-targeting computationally designed protein 02 of 11) (designed binder)
# chain: B26 chain
# modifications: biotinylated for BLI (Avi tag). Limits not given; the soluble form lacking the transmembrane segment (210-226) is taken by convention. Any loop deletion is not stated
# Experiments:
# Test in all cases: BLI
# BCL-B = target: T1, BCL-B
# MCL-1 = target: T2, MCL-1
# BCL-XL = BCL-XL (Homo sapiens)
# Sequence of BCL-XL (Homo sapiens) (chain, as listed by the source): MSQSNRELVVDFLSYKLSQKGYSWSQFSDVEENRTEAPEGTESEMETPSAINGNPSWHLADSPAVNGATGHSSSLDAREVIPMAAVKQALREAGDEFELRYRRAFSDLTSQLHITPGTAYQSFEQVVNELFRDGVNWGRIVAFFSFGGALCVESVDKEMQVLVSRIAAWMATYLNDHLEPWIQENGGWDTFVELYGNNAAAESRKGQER
# BCL-W = target: T3, BCL-W
# BFL-1 = target: T4, BFL-1
# [1] = target: MBP-BAX 1-166 C62S C126S, biotinylated (Avi tag, 6-histidine tag) (human, UniProt Q07812 1-166, C62S | C126S, biotin on the Avi tag (enzymatic, BirA))
# Sequence of MBP-BAX 1-166 C62S C126S, biotinylated (Avi tag, 6-histidine tag) (Q07812 1-166 C62S/C126S): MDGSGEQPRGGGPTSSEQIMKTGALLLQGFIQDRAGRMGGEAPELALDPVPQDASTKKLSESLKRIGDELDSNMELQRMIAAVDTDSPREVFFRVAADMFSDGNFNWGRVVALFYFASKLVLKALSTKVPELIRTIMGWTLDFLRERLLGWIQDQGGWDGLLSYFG
# BCL-2 = BCL-2 (UniProt P10415 1-239, biotin)
# Sequence of BCL-2 (P10415 1-207): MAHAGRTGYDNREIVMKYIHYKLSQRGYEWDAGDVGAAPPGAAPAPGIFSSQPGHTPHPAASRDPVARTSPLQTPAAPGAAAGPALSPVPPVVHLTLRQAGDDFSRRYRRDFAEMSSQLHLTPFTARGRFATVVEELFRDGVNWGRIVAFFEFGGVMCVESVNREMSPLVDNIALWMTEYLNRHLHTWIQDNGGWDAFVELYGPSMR
# [2] = target: MBP-BAK 16-186, biotinylated (Avi tag, 6-histidine tag) (human, UniProt Q16611 16-186, biotin on the Avi tag (enzymatic, BirA))
# [3] = target: T5, MBP-BAK 16-186, biotinylated (Avi tag, …)
binder,measurement,setting,value
B1,Kd,BCL-B,3000 nM
B2,Kd,MCL-1,500 nM
B3,Kd,MCL-1,310 nM
B4,Kd,BCL-XL,5700 nM
B5,Kd,BCL-XL,100000 nM
B6,Kd,BCL-W,5000 nM
B7,Kd,BFL-1,1700 nM
same,Kd,[1],10000 nM
B8,Kd,BFL-1,960 nM
same,Kd,BCL-2,133 nM
same,Kd,[1],> 9000 nM
B9,Kd,BCL-B,12000 nM
B10,Kd,BCL-W,9550 nM
B11,Kd,BCL-XL,38 nM
B12,Kd,BCL-W,6000 nM
B13,Kd,[2],3100 nM
same,Kd,BFL-1,23 nM
same,Kd,BCL-2,50 nM
B14,Kd,BCL-B,2000 nM
B15,Kd,MCL-1,10 nM
B16,Kd,BFL-1,300 nM
same,Kd,BCL-2,2300 nM
same,Kd,[3],> 9000 nM
B17,Kd,[2],> 20000 nM
same,Kd,BCL-2,3500 nM
same,Kd,[1],1.43 nM
B18,Kd,BCL-XL,510 nM
B19,Kd,BCL-XL,1090 nM
B20,Kd,BCL-W,30000 nM
B21,Kd,MCL-1,18000 nM
B22,Kd,MCL-1,600 nM
B23,Kd,BCL-B,> 20000 nM
B24,Kd,BCL-B,80000 nM
B25,Kd,BCL-W,300000 nM
B26,Kd,BFL-1,10 nM
same,Kd,BCL-2,130 nM
B27,Kd,BCL-W,800 nM
B28,Kd,MCL-1,5.4 nM
B29,Kd,BCL-B,200 nM
B30,Kd,BCL-XL,30000 nM
